Measurements taken from patent US12059458B2, “Peptides and combination of peptides and scaffolds for use in immunotherapy against renal cell carcinoma (RCC) and other cancers” (Immatics Biotechnologies GmbH, priority 2015, dated 2024).

What follows are substances tested against HLA-A*02:01 (Homo sapiens, UniProt P04439, D140Y/D185E/D98H/E176V/E277Q/G131W/G231S/I119V/I121R/I166T/I218V/L300P/L318F/N151K/N90K/P208A/P217A/Q86G/Q94H/R138H/R169H/T345S) (assay: MHC binding assay (UV-ligand exchange, beta2m ELISA, peptide exchange yield)). Conditions: binding to HLA-A*02:01 ranged by peptide exchange yield, β2m ELISA.
Text: Candidate peptides for T cell based therapies according to the present invention were further tested for their MHC binding capacity (affinity). The individual peptide-MHC complexes were produced by UV-ligand exchange, where a UV-sensitive peptide is cleaved upon UV-irradiation, and exchanged with the peptide of interest as analyzed. Only peptide candidates that can effectively bind and stabilize the peptide-receptive MHC molecules prevent dissociation of the MHC complexes. To determine the yield of the exchange reaction, an ELISA was performed based on the detection of the light chain (β2m) of stabilized MHC complexes. The assay was performed as generally described in Rodenko et al. (Rodenko et al., 2006).
96 well MAXISorp plates (NUNC) were coated over night with 2 ug/ml streptavidin in PBS at room temperature, washed 4× and blocked for 1 h at 37° C. in 2% BSA containing blocking buffer. Refolded HLA-A*02:01/MLA-001 monomers served as standards, covering the range of 15-500 ng/ml. Peptide-MHC monomers of the UV-exchange reaction were diluted 100 fold in blocking buffer. Samples were incubated for 1 h at 37° C., washed four times, incubated with 2 ug/ml HRP conjugated anti-β2m for 1h at 37° C., washed again and detected with TMB solution that is stopped with […]. Absorption was measured at 450 nm. Candidate peptides that show a high exchange yield (preferably higher than 50%, most preferred higher than 75%) are generally preferred for a generation and production of antibodies or fragments thereof, and/or T cell receptors or fragments thereof, as they show sufficient avidity to the MHC molecules and prevent dissociation of the MHC complexes.

Substance | Peptide exchange (MHC class I binding score)
42 (VILDTGTIQL; listed as Homo sapiens) [compound 42] | ++ (≥20% = ++)
49 (VLIVEVPGV; listed as Homo sapiens) [compound 49] | +++ (≥50 = +++)
38 (VLLDTILQL; listed as Homo sapiens) [compound 38] | +++ (≥50 = +++)
56 (ILMDFSNSM; listed as Homo sapiens) [compound 56] | +++ (≥50 = +++)
4 (FLSQDIITV; listed as Homo sapiens) [compound 4] | +++ (≥50 = +++)
50 (SLSDHIVLL; listed as Homo sapiens) [compound 50] | ++ (≥20% = ++)
28 (FIADLVVGL; listed as Homo sapiens) [compound 28] | ++ (≥20% = ++)
33 (FIADVVEKI; listed as Homo sapiens) [compound 33] | ++ (≥20% = ++)
24 (FTLGTTVFL; listed as Homo sapiens) [compound 24] | +++ (≥50 = +++)
45 (ALLGIPLTL; listed as Homo sapiens) [compound 45] | +++ (≥50 = +++)
41 (GLLKTLQKL; listed as Homo sapiens) [compound 41] | ++ (≥20% = ++)
51 (NLWPMILTL; listed as Homo sapiens) [compound 51] | +++ (≥50 = +++)
31 (VLFGLDPAVIKV; listed as Homo sapiens) [compound 31] | +++ (≥50 = +++)
23 (YIQEVVQYI; listed as Homo sapiens) [compound 23] | +++ (≥50 = +++)
54 (ALVAKGLVQA; listed as Homo sapiens) [compound 54] | ++ (≥20% = ++)
19 (LLDPGSLQL; listed as Homo sapiens) [compound 19] | ++ (≥20% = ++)
52 (SILDAVQRV; listed as Homo sapiens) [compound 52] | ++ (≥20% = ++)
46 (GLSEVLVQI; listed as Homo sapiens) [compound 46] | +++ (≥50 = +++)
21 (RLIQGDQILSV; listed as Homo sapiens) [compound 21] | ++ (≥20% = ++)
53 (FLLEIRQTL; listed as Homo sapiens) [compound 53] | ++ (≥20% = ++)
11 (FIQTEAPKEV; listed as Homo sapiens) [compound 11] | ++ (≥20% = ++)
10 (KLLQNNYGL; listed as Homo sapiens) [compound 10] | ++ (≥20% = ++)
58 (FLVDFEQSHL; listed as Homo sapiens) [compound 58] | ++++ (≥75% = ++++)
8 (GLASFKSFL; listed as Homo sapiens) [compound 8] | ++ (≥20% = ++)
35 (VLHSLQTQL; listed as Homo sapiens) [compound 35] | ++ (≥20% = ++)
25 (LLVPAHLVAA; listed as Homo sapiens) [compound 25] | ++ (≥20% = ++)
5 (YLYPNLTRL; listed as Homo sapiens) [compound 5] | ++ (≥20% = ++)
43 (YLKDELDEL; listed as Homo sapiens) [compound 43] | +++ (≥50 = +++)
14 (ALLTETIFL; listed as Homo sapiens) [compound 14] | ++ (≥20% = ++)

Now from value to substance:

Peptide exchange (MHC class I binding score) | Substance
++ (≥20% = ++) | 100 (KLNVAPLAV; listed as Homo sapiens) [compound 100]
+++ (≥50 = +++) | 104 (ALFEGVVRQI; listed as Homo sapiens) [compound 104]
+++ (≥50 = +++) | 107 (VLMDLKALLL; listed as Homo sapiens) [compound 107]
+++ (≥50 = +++) | 83 (IQWSIVPEV; listed as Homo sapiens) [compound 83]
++ (≥20% = ++) | 77 (SLIKHKIML; listed as Homo sapiens) [compound 77]
++++ (≥75% = ++++) | 109 (YLWSRVEKL; listed as Homo sapiens) [compound 109]
+++ (≥50 = +++) | 79 (ALADIVWRA; listed as Homo sapiens) [compound 79]
++ (≥20% = ++) | 89 (SLLLAVTEV; listed as Homo sapiens) [compound 89]
++ (≥20% = ++) | 86 (GLLQGKLALL; listed as Homo sapiens) [compound 86]
+++ (≥50 = +++) | 74 (GLFHKQVTV; listed as Homo sapiens) [compound 74]
+++ (≥50 = +++) | 112 (LLFDHLEPIEL; listed as Homo sapiens) [compound 112]
++ (≥20% = ++) | 69 (ILADLLPSL; listed as Homo sapiens) [compound 69]
+++ (≥50 = +++) | 96 (TLAETLVNL; listed as Homo sapiens) [compound 96]
++ (≥20% = ++) | 66 (TLLKTIIKV; listed as Homo sapiens) [compound 66]
++ (≥20% = ++) | 84 (YLMDEGAHL; listed as Homo sapiens) [compound 84]
++ (≥20% = ++) | 110 (LLDLHSYLL; listed as Homo sapiens) [compound 110]
+++ (≥50 = +++) | 114 (ALAVNISAA; listed as Homo sapiens) [compound 114]
++ (≥20% = ++) | 67 (LLDVLAPLV; listed as Homo sapiens) [compound 67]
++ (≥20% = ++) | 91 (MLLSSLVSL; listed as Homo sapiens) [compound 91]
+++ (≥50 = +++) | 60 (ILWKDIEYV; listed as Homo sapiens) [compound 60]

Peptide exchange (MHC class I binding score) | Substance
+++ (≥50 = +++) | 113 (SLFDWNVKL; listed as Homo sapiens) [compound 113]
++ (≥20% = ++) | 72 (YSLEKVFGI; listed as Homo sapiens) [compound 72]
++ (≥20% = ++) | 76 (VLADDHLIEV; listed as Homo sapiens) [compound 76]
+++ (≥50 = +++) | 59 (SLKNNVVSV; listed as Homo sapiens) [compound 59]
++ (≥20% = ++) | 111 (TLLETEMLL; listed as Homo sapiens) [compound 111]
+++ (≥50 = +++) | 85 (FVMSEIRTV; listed as Homo sapiens) [compound 85]
+++ (≥50 = +++) | 102 (LLFDVHTTL; listed as Homo sapiens) [compound 102]
+++ (≥50 = +++) | 73 (GLDGIPFTV; listed as Homo sapiens) [compound 73]
++ (≥20% = ++) | 88 (TLAELHISL; listed as Homo sapiens) [compound 88]
+++ (≥50 = +++) | 105 (ALADLDELLIRA; listed as Homo sapiens) [compound 105]
++++ (≥75% = ++++) | 93 (GVMAGDIYSV; listed as Homo sapiens) [compound 93]
++ (≥20% = ++) | 108 (VLISVLQAI; listed as Homo sapiens) [compound 108]
+++ (≥50 = +++) | 75 (FLIKSINLV; listed as Homo sapiens) [compound 75]
+++ (≥50 = +++) | 71 (ALDGHLYAV; listed as Homo sapiens) [compound 71]
++ (≥20% = ++) | 103 (KLQDGLLHI; listed as Homo sapiens) [compound 103]
++ (≥20% = ++) | 90 (FTLEKNFVI; listed as Homo sapiens) [compound 90]
++ (≥20% = ++) | 64 (LLAASVALA; listed as Homo sapiens) [compound 64]
++ (≥20% = ++) | 101 (HIYDKAFITV; listed as Homo sapiens) [compound 101]
+++ (≥50 = +++) | 82 (SLLQATDFMSL; listed as Homo sapiens) [compound 82]
